This experiment addresses CXCR4 ligand. The experiment is described as follows: cell-based or functional assay.

In turn, T140 (peptide) displayed an EC50 (nM): anti-HIV activity, concentration where MT-4 cell death by HIV-1 (IIIB) infection is inhibited by 50% (MTT method) of 3.3 nM.

For the origin of these results see US20100222256A1.
